T1: PKC-ζ (purified isoform) (Homo sapiens (Human), UniProt Q05513 1-592)
T1 construct: also called PKC-zeta; PKCzeta
T1 sequence: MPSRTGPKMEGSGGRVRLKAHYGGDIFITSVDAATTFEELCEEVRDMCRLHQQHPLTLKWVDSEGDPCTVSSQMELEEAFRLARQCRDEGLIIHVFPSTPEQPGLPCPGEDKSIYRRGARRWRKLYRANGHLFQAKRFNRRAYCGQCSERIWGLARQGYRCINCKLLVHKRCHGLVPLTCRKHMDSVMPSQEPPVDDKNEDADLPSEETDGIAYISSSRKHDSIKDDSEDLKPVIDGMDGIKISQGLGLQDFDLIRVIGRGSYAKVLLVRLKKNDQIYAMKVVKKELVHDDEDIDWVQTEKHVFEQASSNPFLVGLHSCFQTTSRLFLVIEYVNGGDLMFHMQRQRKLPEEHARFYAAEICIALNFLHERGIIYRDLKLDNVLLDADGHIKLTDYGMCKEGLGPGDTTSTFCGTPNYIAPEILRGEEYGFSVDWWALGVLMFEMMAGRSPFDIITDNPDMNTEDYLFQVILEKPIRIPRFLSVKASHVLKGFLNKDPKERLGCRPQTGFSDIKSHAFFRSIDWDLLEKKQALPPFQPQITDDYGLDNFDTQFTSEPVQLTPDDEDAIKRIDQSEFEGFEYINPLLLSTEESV

T2: PKC-ε (endogenous, human cell extracts) (human, UniProt Q02156 1-737)
T2 construct: Two bands on the blot, said to be alternate splicing variants; also called PKC-epsilon; PKC-ε Band 1
T2 sequence (looked up): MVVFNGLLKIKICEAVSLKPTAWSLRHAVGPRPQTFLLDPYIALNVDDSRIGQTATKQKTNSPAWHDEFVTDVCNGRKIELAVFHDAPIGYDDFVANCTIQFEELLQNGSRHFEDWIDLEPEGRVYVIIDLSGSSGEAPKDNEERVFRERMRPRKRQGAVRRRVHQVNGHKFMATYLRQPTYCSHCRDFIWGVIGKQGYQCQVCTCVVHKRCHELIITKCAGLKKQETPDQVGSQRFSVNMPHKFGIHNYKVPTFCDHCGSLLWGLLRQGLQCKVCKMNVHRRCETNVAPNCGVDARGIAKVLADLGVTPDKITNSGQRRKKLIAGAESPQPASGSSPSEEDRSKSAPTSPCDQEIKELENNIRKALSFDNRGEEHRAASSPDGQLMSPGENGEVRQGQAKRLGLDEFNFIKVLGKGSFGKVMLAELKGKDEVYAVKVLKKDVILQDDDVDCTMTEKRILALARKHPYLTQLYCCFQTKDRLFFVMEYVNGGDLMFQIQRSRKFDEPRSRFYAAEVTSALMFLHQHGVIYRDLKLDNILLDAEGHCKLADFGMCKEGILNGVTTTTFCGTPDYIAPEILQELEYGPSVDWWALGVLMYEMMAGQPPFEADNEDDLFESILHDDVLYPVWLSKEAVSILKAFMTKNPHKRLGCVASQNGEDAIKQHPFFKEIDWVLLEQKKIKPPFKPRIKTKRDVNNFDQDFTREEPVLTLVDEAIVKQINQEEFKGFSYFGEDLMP


Tests used:
PKC-ζ (purified isoform) = target: T1, PKC-ζ (purified isoform); test: competitive binding assay on purified isoforms: PRE 4 at 20X against the fluorescent anti-PKC-zeta antibody
[1] = target: T2, PKC-ε (endogenous, human cell extracts); test: Western-blot competition on cell extracts against the anti-PKC-ε primary antibody; band densitometry
Procedure: Binding efficiency and specificity of the peptides PRE 2, 3, 4, 5, 6, 7, 8, 9, 10, 11, 12 and 13 (see Table 3) was also tested using cytoplasmic extracts from different cell lines expressing appropriate PKC isoforms as described for Example 1. Briefly, the protein cytoplasmic extracts were separated by electrophoresis and transferred onto nitrocellulose membranes by standard Western blotting procedures. The bands on the Western blots were detected with matching primary antibodies and alkaline phosphatase conjugated secondary antibody. The bands were then scanned and the relative density measurements obtained.
This procedure to assess the binding characteristics of the PREs is based on competition binding of the PRE with the primary anti-isoform PKC specific antibodies. The lower the measured band density, the greater the binding of the PRE to the PKC isoform. The PREs were added at 10 and 20 times (10×, 20×) the primary antibody concentration, according to classical competition between antigenic peptide and primary antibody. The following cell lines (obtained from the ATCC) were used: H661—NCI human lung carcinoma NSCLC; MDAMB231—human highly invasive breast cancer cell line from pleural effusion; LS180—human colon adenocarcinoma; LnCAP—human prostate adenocarcinoma; CCD16Lu—human lung fibroblasts; Du145—human prostate carcinoma brain metastasis, and T24—human bladder carcinoma.

Binder	binding result (PKC-ζ (purified isoform))	binding result [1]
Ac-KDAQNLIGISI-NH2 (Synthetic peptide; also called peptide PRE 4) [PRE 4]	no binding (tested: 20X)	–
Ac-RDAQNLI-NH2 (Synthetic peptide; also called peptide PRE 13; Ac-RDAQNLI-NH2) [PRE 13]	–	no binding (tested: 20X the primary antibody concentration)
